From PMC3459938

Assays:
Test in all cases: ELISA
[1] = molecular target: WW_(2-3-4)-GFP (human) (UniProt P46934)
[2] = molecular target: construct 2 (WW2-WW3-GFP, natural linker) (human) (UniProt P46934)
[3] = molecular target: construct 4 (two WW domains joined by QGLQNEE, GFP fusion)
[4] = molecular target: WW2-GFP (construct 7) (human) (UniProt P46934)
[5] = molecular target: WW3-GFP (human) (UniProt P46934)
[6] = molecular target: construct 5 (two WW domains joined by QGLQNEE, GFP fusion)
[7] = molecular target: WW4-GFP (construct 9) (human) (UniProt P46934)

**Q.** What does the source list for “Adenovirus serotype 3 Penton-Dodecahedron (from UniProt Q2Y0H9 1-544; P04501 1-319) (complex)”?
**A.** Kd [1]: 0.0525 nM; decrease in affinity relative to WW (2-3-4)-GFP [2]: 20%; decrease in affinity relative to WW (2-3-4)-GFP [3]: 20%; percent Pt-Dd binding relative to WW (2-3-4)-GFP [4]: 13%; Kd [5]: 0.0824 nM; percent Pt-Dd binding relative to WW (2-3-4)-GFP [5]: 80%; decrease in affinity relative to WW (2-3-4)-GFP [6]: 20%; percent Pt-Dd binding relative to WW (2-3-4)-GFP [7]: 40%
